The text below walks through data of PMC11722011, “NMR Studies on the Structure of Yeast Sis1 and the Dynamics of Its Interaction with Ssa1-EEVD” (Molecules, 2024).

Ends that are not written are not given here.

What all share (conditions): both partners purified
Experiment [1] addresses T1, full-length Sis1 (residues 1–352), Sis1_(1–352) (S. cerevisiae, UniProt P25294 1-352).
T1 construct: Sis1, class B J-domain protein of S. cerevisiae, residues 1-352 (352 residues long); J-domain 1-72, GF 73-121, GM 122-178, CTDI 179-257, CTDII 258-335, dimerization domain 336-352; 15N- or 2H/15N-labelled; also called 15N-Sis1_(1–352); 2H-15N-Sis1_(1–352)
T1 sequence (looked up): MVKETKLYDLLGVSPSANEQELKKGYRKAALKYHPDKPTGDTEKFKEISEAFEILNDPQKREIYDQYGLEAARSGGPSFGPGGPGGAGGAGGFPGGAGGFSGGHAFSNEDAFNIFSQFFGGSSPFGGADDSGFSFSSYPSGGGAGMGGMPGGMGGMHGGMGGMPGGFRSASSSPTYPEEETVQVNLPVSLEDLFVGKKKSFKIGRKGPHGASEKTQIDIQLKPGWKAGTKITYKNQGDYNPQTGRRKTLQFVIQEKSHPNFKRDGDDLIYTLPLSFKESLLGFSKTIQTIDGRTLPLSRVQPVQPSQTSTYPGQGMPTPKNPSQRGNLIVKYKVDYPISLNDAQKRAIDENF
Briefly: NMR titration; 1H-15N TROSY of 0.3 mM 15N-Sis1(1-352) free and with GPTIEEVD (1:4 protein:peptide), CSP; 25 mM Tris-HCl pH 7.5, 200 mM NaCl, 10% D2O, 303 K.

Experiment [2] addresses T1, full-length Sis1 (residues 1–352), …. The experiment can be described thus: NMR titration; paramagnetic relaxation enhancement: Sis1(1-352) with TEMPO-labeled EEVD peptide, TROSY spectra, paramagnetic against diamagnetic (reduced with ascorbate) intensity ratio.
The target in experiment [3] is T2, Sis1_(1–81), J-domain of Sis1 (residues 1–81) (S. cerevisiae, UniProt P25294 1-81).
T2 construct: Sis1, class B J-domain protein of S. cerevisiae, residues 1-81: J-domain (1-72) and part of the GF region (73-81); 15N-labelled for HSQC, 13C/15N-labelled for the structure; also called 15N-Sis1_(1–81)
T2 sequence (looked up): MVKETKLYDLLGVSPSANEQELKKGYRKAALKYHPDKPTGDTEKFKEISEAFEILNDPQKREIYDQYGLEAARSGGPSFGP
Briefly: NMR titration; paramagnetic relaxation enhancement: 15N-Sis1(1-81) titrated with TEMPO-labeled …, 1H-15N HSQC at 900 MHz; diamagnetic sample after reduction with 3 mM ascorbic acid; intensity ratio Ipara/Idia.

B1: GPTIEEVD peptide (EEVD peptide, C-terminal motif of HSP70/Ssa1) (peptide)
peptide: GPTIEEVD
notes: also called Ssa1-EEVD; source: synthetic peptide (GenOne Biotechnologies, Rio de Janeiro)
In the case of B1, in experiment [1], the binding result is “binds”.

B2: TEMPO-labeled CGPTIEEVD peptide (TEMPO-EEVD) (peptide)
peptide: C(4‑maleimide‑TEMPO)GPTIEEVD
notes: N-terminal cysteine that carries the spin label; also called spin-labeled EEVD; paramagnetic EEVD peptide; source: synthetic peptide (GenOne Biotechnologies), labelled with 4-maleimide-TEMPO, HPLC (C18) purified
As to B2, the binding result in experiment [2] and in experiment [3] was “binds” in each case.
